T1: dCREB2-a (UniProt Q9VWW0)
T1 sequence: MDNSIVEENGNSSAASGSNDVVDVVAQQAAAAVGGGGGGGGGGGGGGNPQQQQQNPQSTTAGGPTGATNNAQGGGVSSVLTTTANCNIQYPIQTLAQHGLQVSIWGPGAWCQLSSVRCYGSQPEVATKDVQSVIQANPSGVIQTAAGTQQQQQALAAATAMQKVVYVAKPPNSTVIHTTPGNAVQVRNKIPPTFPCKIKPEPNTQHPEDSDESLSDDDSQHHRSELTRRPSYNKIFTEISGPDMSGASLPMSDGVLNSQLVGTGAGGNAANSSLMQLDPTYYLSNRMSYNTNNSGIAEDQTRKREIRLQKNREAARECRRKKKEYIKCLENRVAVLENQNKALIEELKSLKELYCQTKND


What was measured:
[1] = target: T1, dCREB2-a; test: cell_activity; conditions: F9 cells; dCREB2-a plus PKA relative to PKA alone
[2] = tested on: PKA-responsive transcription (CRE-directed reporter) in F9 cells; test: PKA-responsive transcription from the CRE-containing D(-71) CAT reporter in transiently transfected F9 cells; assay type: cell-based; conditions: cotransfected with dCREB2-a, PKA and reporter
Experimental: Undifferentiated F9 cells were maintained and transfected using the calcium phosphate method as described in Darrow, A. L. et al., “Maintenance and Use of F9 Teratocarcinoma Cells”, In Meth. Enzymol., v. 190 (1990), except that chloroquine was added to […] immediately before transfection and precipitates were washed off ten hours after transfection, at which time the dishes received fresh chloroquine-free medium. Amounts of DNA in transfections were made equivalent by adding RSV-0 where required. Cells were harvested 30 hours after transfection. Extracts were made by three cycles of freeze/thawing, with brief vortexing between cycles. Particulate matter was cleared from extracts by ten minutes of centrifugation in the cold. β-galactosidase assays were performed as described in Miller, J. H., Experiments in Molecular Genetics, Cold Spring Harbor Laboratory, Cold Spring Harbor, N.Y., 1972. CAT assays were performed as described in Sheen, J. Y. and B. Seed, Gene, 67: 271-277 (1988) using aliquots of extract heat-treated at 65° C. for ten minutes and centrifuged for ten minutes to remove debris. Results reported are from three experiments run on different days with at least three dishes per condition within each experiment. Error bars represent standard error of the mean, with error propagation taken into account (Grossman, M. and H. W. Norton, J. Hered., 71: 295-297 (1980)).
F9 cells were transiently transfected with 10 μg of D(−71) CAT plasmid as a CRE-directed reporter. 5 μg of RSV-βgal reporter was included in each dish as a normalization control for transfection efficiency. Different groups received 8 μg of dCREB2-a expression vector and 4 μg of PKA expression vector, separately or in combination. Results are expressed as CAT/Pgal enzyme activity ratios, standardized to values obtained with PKA-transfected dishes. […]
Two different dCREB2 isoforms, dCREB2-a and dCREB2-b, have opposite roles in PKA-responsive transcription. […] CREB-dependent changes in gene expression were measured using a cotransfected construct that has a CRE-containing promoter fused to a reporter gene.

Row | Molecule | activity [1] | effect on PKA-dependent activation by dCREB2-a [2]
1 | D(-71) CAT rat somatostatin promoter CRE fragment | 5.4 fold | –
2 | dCREB2-b: Drosophila dCREB2 isoform lacking exons 2 and 6, antagonist of dCREB2-a, expressed from RSV-dCREB2-b (protein) MDNSIVEENGNSSAASGSNDVVDVVAQQAAAAVGGGGGGGGGGGGGNPQQQQQNPQSTTAGGPTGATNNAQGGGVSSVLTTTANCNIQYPIQTLAQHGLQVQSVIQANPSGVIQTAAGTQQQQQALAAATAMQKVVYVAKPPNSTVIHTTPGNAVQIPPTFPCKIKPEPNTQHPEDSDESLSDDDSQHHRSELTRRPSYNKIFTEISGPDMSDNSGIAEDQTRKREIRLQKNREAARECRRKKKEYIKCLENRVAVLENQNKALIEELKSLKELYCQTKND | – | nearly complete block
3 | mLZ-dCREB2-b: leucine-zipper mutant of dCREB2-b; middle two leucines converted to valines (protein) MDNSIVEENGNSSAASGSNDVVDVVAQQAAAAVGGGGGGGGGGGGGNPQQQQQNPQSTTAGGPTGATNNAQGGGVSSVLTTTANCNIQYPIQTLAQHGLQVQSVIQANPSGVIQTAAGTQQQQQALAAATAMQKVVYVAKPPNSTVIHTTPGNAVQIPPTFPCKIKPEPNTQHPEDSDESLSDDDSQHHRSELTRRPSYNKIFTEISGPDMSDNSGIAEDQTRKREIRLQKNREAARECRRKKKEYIKCLENRVAVVENQNKAVIEELKSLKELYCQTKND | – | failed to block
